# From the supplement of paper PMC12042874
# ± gives the uncertainty stated by the source.
# Test: amyloid nucleation score (Sup35N fusion, yeast selection) (log enrichment); library NNK2; higher = more nucleation; inactive = no reads after selection
# Outline: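 Sup35N fusions to peptides of 20 random codons were expressed in psi-negative yeast, induced 24 hours with 100 μM copper sulfate, and grown 7 days at 30°C on medium lacking adenine and uracil. Input and output plasmid inserts were sequenced by Illumina. The nucleation score is the DiMSum log enrichment of output over input reads, centred on the mode score of non-aggregating sequences. Sequences with under 100 input reads were excluded.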
row,Substance,amyloid nucleation score
1,RIMTFFVMPDSRRRVDHNQV,0.074 ± 1
2,WYAHGLISVCFVCAGLESLG,-0.251 ± 0.76
3,VFCSSRFCIEECGC,-0.453 ± 0.64
4,SVSDLLLIYVIESSCSHGFK,4.72 ± 0.072
5,KRARR,0.356 ± 0.4
6,KLSIWGLRGVVGAWRCHTGY,inactive
7,NLDGIVRMTN,-0.543 ± 0.56
8,ADFTWVKSHVCHMEWSR,0.551 ± 0.42
9,SLKEIECFSQ,inactive
10,DFNSCRLTVHLRYTSVPCRY,0.233 ± 0.74
11,HKWKII,-1.55 ± 0.75
12,YQMISDSPNINIFYGFYSET,inactive
13,YSISNPYACFSNVQSFLLYN,2.65 ± 0.15
14,GGNIGVSYLRWCARINCWWK,5.49 ± 0.062
15,LYLWWILIYDHMAPKEW,-0.47 ± 0.63
16,SRMRVLFALLQDFQSHVGSV,1.36 ± 0.11
17,VALFS,-0.029 ± 0.8
18,ILWISHLELCENVLVLDWQM,2.99 ± 0.048
19,SLFYVTLAPTSWICGTARC,1.43 ± 0.41
20,ADRYMHSTHVDNCPYAGFTS,0.444 ± 0.44
21,NHLLMGGGHKDAVGQSVFGI,0.074 ± 0.74
22,YVTVTNGMI,-0.447 ± 0.61

row,Substance,amyloid nucleation score
1,RLIRFSIMEV,-0.291 ± 0.54
2,NYIMWLWQQTGWSNGWCALI,0.312 ± 0.61
3,FLKGPTEECQLRPSLRTNLQ,0.069 ± 0.23
4,FRLYFHPGVNGAET,-0.356 ± 0.64
5,RRYMSVDSK,inactive
6,MIRWSRRTCRKGLTECTCST,1.52 ± 0.33
7,SHQWLRRLPWVI,0.528 ± 0.44
8,VLACTEGNVLFEDDLRTKGL,1.56 ± 0.35
9,YATKFN,0.058 ± 0.79
10,RFQWSCEVRESPPLNVDLMG,1.41 ± 0.44
11,GVQETSYVALCSSLVTRTFV,1.16 ± 0.44
12,ACSDGVAMECKV,-0.429 ± 0.44
13,FSRMPLMDESFWFTCSICVM,2.64 ± 0.068
14,CFSSIQIRDKTVVGDSWMFR,3.58 ± 0.14
15,GCYISLHMCLE,3.84 ± 0.049
16,ISGWYVVSSVS,0.912 ± 0.22
17,GIMSVGTAKWRDGQPSACRK,0.996 ± 0.37
18,SHRFADILDCV,0.518 ± 0.24
19,PYQAIHYVNRCGFWLTASCA,0.36 ± 0.62
20,IVTAGWNLVFRKYADTRMVQ,-0.337 ± 1.1
21,RTYLGLVLGF,inactive
22,AWGGSRNRMYFYHSPVRFFE,4.5 ± 0.088

row,Substance,amyloid nucleation score
1,QYCARAR,1.87 ± 0.4
2,GYIMIPRYPPSKHLCF,-0.545 ± 0.41
3,GRCILGCHPATRTGMLRYFE,-0.087 ± 1
4,ITSVKHCAS,1.05 ± 0.53
5,RGYDLVGSIIFSMQKRLRKK,-1.24 ± 1.1
6,GMLSTTALNLLNMVICYYSL,5.447 ± 0.035
7,FYQFLNSNGKYTGVYGAAPR,-1.01 ± 0.41
8,VQGLHCWIG,inactive
9,IRYNLGGDQLG,-0.805 ± 0.44
10,CNFKINRAHNELPLDDLRNF,inactive
11,CNFVRSYDCHQVKLSI,-1.18 ± 1.1
12,DTCWEGCLTKTYFW,-1.29 ± 0.75
13,SFRSMIQQSAAGFYSSFIST,-1.89 ± 1.1
14,GSSKFPDFSISLMYELFDI,-0.91 ± 1.1
15,LIPHSTSHRGFKLYSRVFYP,-0.047 ± 1.1
16,SVWWSSNFINPPDFCNM,-1.19 ± 1.1
17,SGSVLFGRVYRRRFLFWVVD,inactive
18,YGQAMWASIFMIYRLPKTLR,-1.13 ± 0.28
19,WCSIDLSHFVCYNLGYMR,7.395 ± 0.052
20,IDVGI,0.106 ± 0.2
21,EDFMRCRVWVSRGLVPSWGS,0.747 ± 0.24
22,SHTITSGWCAGWIGFSPICR,0.932 ± 0.32

row,Substance,amyloid nucleation score
1,SARWYILRVFIFFIPRSAYK,-1.59 ± 0.76
2,LSVCVRHEDGGSIAVECGS,0.242 ± 0.77
3,MCFSPCCRWPRIRQEDQG,0.531 ± 0.64
4,RCLLTYSVEYWRIFGTSPDS,0.157 ± 0.5
5,SETYTLIRARYIMV,-1.24 ± 0.75
6,TLENQVGSMSIGGFSGGYRR,0.201 ± 1
7,LLTYYFVLTLVPSMFTSFVF,1.49 ± 0.15
8,GYGDGILVSFSC,-0.986 ± 0.76
9,YSENNLIG,inactive
10,CPTFKIKRDMSLTHRLFNIY,-1.64 ± 0.54
11,QTCCTSNEQEFVALA,0.414 ± 0.32
12,HSSMLLSVFDLNARK,-0.174 ± 0.49
13,SGEGRLLVRWALVKVTEEKL,0.907 ± 0.58
14,MIRLRIVYGTLDMYGLQMYS,1.46 ± 0.27
15,FVMNGPLWMTLANMSMNHNL,4.21 ± 0.06
16,TCKMIAISRRGIDPGKAMHS,-1.16 ± 0.49
17,FSWSYDVDIT,inactive
18,QKFVLSRPDLDRFYCSMDCM,-0.185 ± 0.63
19,SHFCVVCEYTLVSSYHR,5.09 ± 0.09
20,AVVFSNCGCFSMKFYMVVAT,-2.06 ± 0.48
